Results: US20190085033A1

Columns and labels:
[1] = target: BG505-gp120 9MUTB (7MUT+N135R/Q328M) (HIV-1, strain BG505); assay: SPR, monomeric gp120
[2] = target: CD4 on human CD4+ T cells (human) (UniProt P01730); assay: flow cytometry, trimer labelled with two fluorescent probes on human CD4+ T cells, 30 mins
[3] = target: BG505 SOSIP T332N gp140; assay: SPR; settings: Fab

Substance: PGT121 (antibody)
- Kd [1]: 0.0015 µM

Substance: BG505 SOSIP T332N gp140 (other; other documents disagree on this pair)
- percentage of cells bound (double-positive population) [2]: 99.1%

Substance: PGT121 Fab
- Kd [3]: 0.026 µM
